Test results: US20210238260

Biological target: Factor X (FX), P00742
Sequence (P00742 whole entry, looked up): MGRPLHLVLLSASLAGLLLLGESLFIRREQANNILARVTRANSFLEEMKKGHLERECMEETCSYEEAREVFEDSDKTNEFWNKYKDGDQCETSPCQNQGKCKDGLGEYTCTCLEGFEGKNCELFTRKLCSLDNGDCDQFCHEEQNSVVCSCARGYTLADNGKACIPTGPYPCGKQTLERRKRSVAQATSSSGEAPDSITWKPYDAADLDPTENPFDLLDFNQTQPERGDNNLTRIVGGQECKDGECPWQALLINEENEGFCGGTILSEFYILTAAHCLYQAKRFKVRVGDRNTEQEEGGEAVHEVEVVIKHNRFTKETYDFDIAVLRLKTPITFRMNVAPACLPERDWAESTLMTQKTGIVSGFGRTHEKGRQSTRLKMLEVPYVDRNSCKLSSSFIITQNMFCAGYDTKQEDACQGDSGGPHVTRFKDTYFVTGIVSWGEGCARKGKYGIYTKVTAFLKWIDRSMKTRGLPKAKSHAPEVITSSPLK

| Protein | kcat of FX activation by FIXa (Xase complex with FVIIIa, PC/PS vesicles, Ca2+) [s⁻¹] | KM [µM] |
| --- | --- | --- |
| FIXa-R318Y/R338E/Y345A/N346D/R403E/E410N (protein) chain 1: YNSGKLEEFVQGNLERECMEEKCSFEEAREVFENTERTTEFWKQYVDGDQCESNPCLNGGSCKDDINSYECWCPFGFEGKNCELDVTCNIKNGRCEQFCKNSADNKVVCSCTEGYRLAENQKSCEPAVPFPCGRVSVSQTSKLTR chain 2: VVGGEDAKPGQFPWQVVLNGKVDAFCGGSIVNEKWIVTAAHCVETGVKITVVAGEHNIEETEHTEQKRNVIRIIPHHNYNAAINKYNHDIALLELDEPLVLNSYVTPICIADKEYTNIFLKFGSGYVSGWGRVFHKGYSALVLQYLRVPLVDRATCLESTKFTIADNMFCAGFHEGGRDSCQGDSGGPHVTEVEGTSFLTGIISWGEECAMKGKYGIYTKVSEYVNWIKNKTKLT | 1.2 |  |
| FIXa R318Y/R338E/R403E (protein) chain 1: YNSGKLEEFVQGNLERECMEEKCSFEEAREVFENTERTTEFWKQYVDGDQCESNPCLNGGSCKDDINSYECWCPFGFEGKNCELDVTCNIKNGRCEQFCKNSADNKVVCSCTEGYRLAENQKSCEPAVPFPCGRVSVSQTSKLTR chain 2: VVGGEDAKPGQFPWQVVLNGKVDAFCGGSIVNEKWIVTAAHCVETGVKITVVAGEHNIEETEHTEQKRNVIRIIPHHNYNAAINKYNHDIALLELDEPLVLNSYVTPICIADKEYTNIFLKFGSGYVSGWGRVFHKGYSALVLQYLRVPLVDRATCLESTKFTIYNNMFCAGFHEGGRDSCQGDSGGPHVTEVEGTSFLTGIISWGEECAMKGKYGIYTKVSEYVNWIKEKTKLT |  | 0.0597 |
| FIXa Y155F/R318Y/R338E/R403E (protein) chain 1: YNSGKLEEFVQGNLERECMEEKCSFEEAREVFENTERTTEFWKQYVDGDQCESNPCLNGGSCKDDINSYECWCPFGFEGKNCELDVTCNIKNGRCEQFCKNSADNKVVCSCTEGYRLAENQKSCEPAVPFPCGRVSVSQTSKLTR chain 2: VVGGEDAKPGQFPWQVVLNGKVDAFCGGSIVNEKWIVTAAHCVETGVKITVVAGEHNIEETEHTEQKRNVIRIIPHHNYNAAINKYNHDIALLELDEPLVLNSYVTPICIADKEYTNIFLKFGSGYVSGWGRVFHKGYSALVLQYLRVPLVDRATCLESTKFTIYNNMFCAGFHEGGRDSCQGDSGGPHVTEVEGTSFLTGIISWGEECAMKGKYGIYTKVSEYVNWIKEKTKLT |  | 0.0671 |
| FIXa R338E/R403E/E410N (protein) chain 1: YNSGKLEEFVQGNLERECMEEKCSFEEAREVFENTERTTEFWKQYVDGDQCESNPCLNGGSCKDDINSYECWCPFGFEGKNCELDVTCNIKNGRCEQFCKNSADNKVVCSCTEGYRLAENQKSCEPAVPFPCGRVSVSQTSKLTR chain 2: VVGGEDAKPGQFPWQVVLNGKVDAFCGGSIVNEKWIVTAAHCVETGVKITVVAGEHNIEETEHTEQKRNVIRIIPHHNYNAAINKYNHDIALLELDEPLVLNSYVTPICIADKEYTNIFLKFGSGYVSGWGRVFHKGRSALVLQYLRVPLVDRATCLESTKFTIYNNMFCAGFHEGGRDSCQGDSGGPHVTEVEGTSFLTGIISWGEECAMKGKYGIYTKVSEYVNWIKNKTKLT |  | 0.0367 |
| FIXa Y155F/R338E/R403E/E410N (protein) chain 1: YNSGKLEEFVQGNLERECMEEKCSFEEAREVFENTERTTEFWKQYVDGDQCESNPCLNGGSCKDDINSYECWCPFGFEGKNCELDVTCNIKNGRCEQFCKNSADNKVVCSCTEGYRLAENQKSCEPAVPFPCGRVSVSQTSKLTR chain 2: VVGGEDAKPGQFPWQVVLNGKVDAFCGGSIVNEKWIVTAAHCVETGVKITVVAGEHNIEETEHTEQKRNVIRIIPHHNYNAAINKYNHDIALLELDEPLVLNSYVTPICIADKEYTNIFLKFGSGYVSGWGRVFHKGRSALVLQYLRVPLVDRATCLRSTKFTIYNNMFCAGFHEGGEDSCQGDSGGPHVTEVEGTSFLTGIISWGEECAMKGKYGIYTKVSEYVNWIKNKTKLT |  | 0.0336 |
